{
  "source": "paper PMC6779467",
  "target": "Hsf1-13xMyc (S. cerevisiae) (UniProt P10961)",
  "experiment": "cross-linking; in vivo site-specific photo-crosslinking (UV-A, 1 hr on ice) from pBPa at position 423 of Ssa1-HA; cells grown at 30 C or heat shocked 3 min at 43 C; western with anti-HA and anti-Myc",
  "data": [
    {"substance": "Ssa1_(E423BPa)-HA (from UniProt P10591 1-642) (natural protein)", "values": [
      {"measurement": "decrease of Hsf1-Ssa1 crosslinking after heat shock (3 min at 43 C) against cells at 30 C", "result": 77, "unit": "%"}
    ]}
  ]
}
